Data published in the DeepSol protein solubility set.

Test: soluble on expression in E. coli; label from the status in PepcDB or PDB records

Row | Sequence | soluble on expression in E. coli
1 | MGHHHHHHSHMSRRKQGKPQHLSKREFSPEPLEAILTDDEPDHGPLGAPEGDHDLLTCGQCQMNFPLGDILIFIEHKRKQCNGSLCLEKAVDKPPSPSPIEMKKASNPVEVGIQVTPEDDDCLSTSSRRICPKQEHIADKLLHWRGLSSPRSAHGALIPTPGMSAEYAPQGICKDEPSSYTCTTCKQPFTSAWFLLQHAQNTHGLRIYLESEHGSPLTPRVLHTPPFGVVPRELKMCGSFRMEAREPLSSEKI | not soluble
2 | MIITQGPQFQGKASKRLHVMAKPIGAVCNIDCSYCYYLSKEDLLEYKKGCSPQMDDETLETYIRQYIEGQNTPEIIFSWQGGEPTLLGLDYFKKIVEFQKKYQPEGILISNDLQTNGTLLTDKWCEFLAENNFLVGLSIDGPEMLHNAYRTNKAGRGTFKQVMNAVELLHKHNVKFATLTCVNNLTSRNPLEVYRFLRDVVKSPQMQFIPIVEQKTFRTVAPQTEQIAAQLRQGDKRLIPGNKESIMEPWCVSDEAWGNFLIAVFDEWTQHDLGKVFVQYFEASVETWMGRKNPLCTLGEICGKGLAMEHNGDVFACDHYVYPEYKIGNIHNEELDTLAFSRKQQEFGFAKSKTLTTQCQKCEYKFACHGECPKNRFIKTRDGEPGLNYLCAGWKKFFAHADKSIAYILKMLGNPVQHGKYSDAKMQQVHQNAFPTKF | not soluble
3 | GPGSMSATEAVVEPKAPDVCTEANERPPTESGVAAPVKRLFDLLQEDSKERVVRLLTAFRELTLLEQESLAQEMGVTLPKEEKWRAPCPLIARQPSGPSLEVRRRDPSYVALCPSVSSALRELGSKEAARRLPDADLRKLVEGALGEDGVYLTVPESDGEGCAAASERVGVVDDGKPPLLVRSRCYQALRLARDEEIETDAQYTRPRVLNVTGIPLEESDVWEWFNLLDVARNGTVGVDAFLTSVRELDRGFGTSSKVQEAFEDESRSLSVDGQLSFDKFAYLVTRFSRY | soluble
4 | SATTIGPNTCSIDDYKPYCCQSMSGSASLGCVVGVIGSQCGASVKCCKDDVTNTGNSFLIINAANCVA | soluble
5 | VVGHIVNDLQRRKVGDQEVVKFRVASNSRRRTSDGGWEPGNSLFITVNCWGRLVTGVGAALGKGAPVIVVGHVYTSEYEDRDGIRRSSLEMRATSVGPDLSRVIVRIEKPAYTGPSAGDLPAATGTGAAGAADAPASAADSVSDVVVDDAITGHNPLPISA | not soluble
6 | GPPPPPGPPPPPGPPPPPGL | soluble
7 | MGSDKIHHHHHHMVKIKGLNGNLVFIFGPGSFDEYLSFLEEKLTANKQLFSGSRVIFKGEELKKLSHSQIASLQELCLRHGVIMNNNAVTVNKGSSKDLVIYRNLRSGQKLRSEGSVIIWGDVHESAEILAAGDIIVLGKLDGIAHAGCYGDMNRLIFALSLSPGQIRIGDRLSRSPEDPDKSPHPEIAFWDGENICIKAYSSRSGLRG | not soluble
8 | GVTYLLAKRKILYFEAVESKIFVYTEKDVYETTWKLYELEEKFKDSSFFRCSKSMILNIEWIEKIAPGFHGKFEASLFNREKVIISRQYAKILKQKLNLGGKGK | not soluble
9 | MESIFHEKQEGSLCAQHCLNNLLQGEYFSPVELSSIAHQLDEEERMRMAEGGVTSEDYRTFLQQPSGNMDDSGFFSIQVISNALKVWGLELILFNSPEYQRLRIDPINERSFICNYKEHWFTVRKLGKQWFNLNSLLTGPELISDTYLALFLAQLQQEGYSIFVVKGDLPDCEADQLLQMIR | soluble
10 | MPFSFFSRKKPSRRFNDFYEDWSKTLTENCLPLLRQSLSSAASASVLSSNVDLVLRHLVLYYETLDLAADHNTIPYLLFPSWRNSLETPFLFLGDIHPYLLTNLLRSFIDRENQDSDDEDEETSLDLVNQPLKMTMAWKDPSDELVKRIDQIECTMRLMVPGLMDRMRKTQRSFVARVSESWVSSYQVGKKKKLTATVATASTSVDEAAKIEMEELVSIFVDANRLRKSVIMDIVGATSEHQAALFLEGLCQFLAGFKDQILLQDFEILSLPN | soluble
11 | MGSDKIHHHHHHMNITIATLGELLVEFLAKKENQGFSSPGEFWGPYPSGAPAIFADQVAKLGFRSLLFSCVGNDAFGVMNITRLSRDGVNVQGISVLPNATTGSAFVSYRSQAQRDFIFNMPDSACGLLSADHLDETLLRQYRHFHIMGSSLFSFRLIDAVRKAISIVKENGGTISFDPNIRKEMLKIREMSQAFEYILDYTDFFLPSDGELDYFGLSKSRDEEKIVARLHKRGIAHVIIKRGARGASYYSKDEQHHVAGYPVKVVDPTGAGDCFGATFVSLFLAGYSVPDALAHANAAGSLAISARGPMEGTSTLAQIKELMRQQN | not soluble
12 | MGSDKIHHHHHHMHVYESDVSWIDDRRTEVSVGDHRIEVDSPPEFGGPEGQLYPETLFPSVLASCLLTTFLEFKDRMGINLKSWNSHVTAELGPSPEKGFKFHRIKIHVKIGVNDEDKEKIPRAMQLAEKYCFISRAIRNNVEEIVDYEFV | not soluble
13 | MGDTGKLGRIIRHDAFQVWEGDEPPKLRYVFLFRNKIMFTEQDASTSPPSYTHYSSIRLDKYNIRQHTTDEDTIVLQPQEPGLPSFRIKPKDFETSEYVRKAWLRDIAEEQEKYAAERD | soluble
14 | MGSDKIHHHHHHEQDNSVSEKQVDVVYNDPRDPFEGFNRAMWDLNYNVLDRYIYRPVAHTYKDYVPSPVKSGLHNFVRNLEEPNALVNNTLQGKFGWAANAGGRFVVNSTIGLLGVVDVADMMGMHRKQDDFNEVLGYYGVPNGPYFMAPFFGPYVTRELASDWVDGLYFPLSELTMWQSVVKWGIKSLHVRTEAIDQERLLDNALDPYTFVKDAYLQHMDYKVYDGNVPSNQEDDELLDEYMQELE | not soluble
15 | MAHHHHHHMSSDDECPELISARVPVTVLTGFLGSGKTTLLHYILSADHDMRIAVIVNEFEFGKTIEKGLTLKSSEKPDDEWLELNNGCMCCTAQTQTVKALESLMEHRGTFDLILVETSGLADPGPIAAMFWQDLPLCGHLYLSGIVTLVDAVNICRYLDDEDVMREAERQILMADKVVLNKCDIATEAQQKAALAAVREINPVATVIPSDHSRVPNLRDILFIDTTRAATELVHLHEHHHSSISAVSLEFFEAERAFAVSSYRDVHAIGSDLLYRCGDYGFEVVRCKAAIWCCEDGQYRLLQLQSIGDLFDVTPMVGQSVPFGCTRALVLGKQLDEVKLRDIFAKYLKATK | not soluble
16 | GMVGINTDTENISELLKTYWSIQRISAGYADQNAASLGLTIQQLAMINVIYSTPGISVADLTKRLIITGSSAAANVDGLISLGLVVKLNKTIPNDSMDLTLKLSKKGEDLSKRSTANAFMYKAMMKVFENLTENEIEELIRLNKKVETLLKKSK | soluble
17 | MNQEVTAPKEMNQGASNDLLTTSLKNVTRLNTNDPSQMAVLTSQTIWAATHKENQPGAVILVPASEWQLGIASADFIHHPNNGPILFIEKEKIPEMTLKEIKRLNPIGTKDGTQIMVMGDVGTSALEQLKGYKVKQIKETDPAIFAKDVDKEYADITGSYPNSVIIGSSAEEGRLYTTPAVNWISHMPEPLLYTEKNKVPEATIEALKMRKDKANIYVLGPEKIVSKEVEKELSKYGKVTRISGETPTENSIAFAKFKDEKTKFGWGFTKPGHGLSFVSSKTPDLAVAGAPFSHMGKHAPVVLLEEGKASQTVYDFLASIQPKFKDDPTLGPYNHGFLLGNTSDISFETQGILDERLEIVQESGQGHGGH | not soluble
18 | MGSDKIHHHHHHMLRYHMQGFSGYGVQYSPFFDNRLAVAAGSNFGLVGNGKLFILEIDRSGRIVEVNSFLTQDCLFDLAWNESHENQVLVAQGDGTLRLFDTTFKEFPIAIFKEHEREVFSCNWNLVNRQNFLSSSWDGSIKIWSPLRKQSLMTLTPRPLEITKMVDPLNAIILKKKSFTGISKNRNCVYQAQFSPHDQNLVLSCSGNSYASLFDIRLPSGKNQNNFLVHSGLEALTCDFNKYRPYVVATGGVDNAIRIWDIRMLNKNESATIKRTVPGQLHNSSCINEIPNAHGLAIRKVTWSPHHSNILMSASYDMTCRIWRDLSNDGAKETYKTNSTDATKGSIFNFTQHSEFVFGADWSLWGKPGYVASTAWDGNLFVWNGLG | not soluble
19 | MTPHVMKRDGCKVPFKSERIKEAILRAAKAAEVDDADYCATVAAVVSEQMQGRNQVDINEIQTAVENQLMSGPYKQLARAYIEYRHDRDIEREKRGRLNQEIRGLVEQTNASLLNENANKDSKVIPTQRDLLAGIVAKHYARQHLLPRDVVQAHERGDIHYHDLDYSPFFPMFNCMLIDLKGMLTQGFKMGNAEIEPPKSISTATAVTAQIIAQVASHIYGGTTINRIDEVLAPFVTASYNKHRKTAEEWNIPDAEGYANSRTIKECYDAFQSLEYEVNTLHTANGQTPFVTFGFGLGTSWESRLIQESILRNRIAGLGKNRKTAVFPKLVFAIRDGLNHKKGDPNYDIKQLALECASKRMYPDILNYDQVVKVTGSFKTPMGCRSFLGVWENENGEQIHDGRNNLGVISLNLPRIALEAKGDEATFWKLLDERLVLARKALMTRIARLEGVKARVAPILYMEGACGVRLNADDDISEIFKNGRASISLGYIGIHETINALFGGEHVYDNEQLRAKGIAIVERLRQAVDQWKEETGYGFSLYSTPSENLCDRFCRLDTAEFGVVPGVTDKGYYTNSFHLDVEKKVNPYDKIDFEAPYPPLANGGFICYGEYPNIQHNLKALEDVWDYSYQHVPYYGTNTPIDECYECGFTGEFECTSKGFTCPKCGNHDASRVSVTRRVCGYLGSPDARPFNAGKQEEVKRRVKHLGNGQIG | not soluble
20 | FGQYLAIRRTDALLRQQLDTLTIDTLSELEGKLPVKSNSLVIAYIRRVLESKDRPAHVQRLLADFEITADKDLAISKTLTKMGP | not soluble
21 | MDNTEDVIKEFMQFKVRMEGSVNGHYFEIEGEGEGKPYEGTQTAKLQVTKGGPLPFAWDILSPQFQYGSKAYVKHPADIPDYMKLSFPEGFTWERSMNFEDGGVVEVQQDSSLQDGTFIYKVKFKGVNFPADGPVMQKKTAGWEPSTEKLYPQDGVLKGEISHALKLKDGGHYTCDFKTVYKAKKPVQLPGNHYVDSKLDITNHNEDYTVVEQYEHAEARHSGSQ | soluble
22 | MGSDKIHHHHHHMANDWLELRQHADTGIETIKAHFEGHAYDPHWHDSYLVGLTLSGTQQFHCRRERHRSRPGDAFLLEPGEIHDGDAPVDGGFTYLTFYLDEQWLTNALHGLYESTPGSYSLHFAQTLTREPQLVRSISDSFTTLHNDEMKIVQQSSMDKLLSQITAHCHWRKRLPSQLQSTAVAHRARDYLYAHMGENIGLSDLARETGTDRFTLTRCFKREFHLAPHAWFIQLRLAKARQLLAYGDQPADVAAALGFSDQSHLGRWFQRAYRISPAHYRRLCTNLPDVSRR | not soluble
23 | RQTHYLIHSDLGFRTRGVLWISNTVDSVPKGILRAELEKIPGVEKVSYACGNPIRYLNNMSFTKDGVNVSTWEMVVDSVFFDFFEISPIPLTDEPVETFFDREKMRAARIIPEWGNMKMINAVRPDPETGIFTQGDDDNDEVKYRMVGRIPDLKYKPLNMEQSPLQIRPLYAREQPWVTLVRASDEADKSAVLAAVSDTYKRVTGAEDIEPLWAEDIILDRYKSQTNLSQ | not soluble
24 | MKKVGEYFLDPNLDPGRDHILYKDDEHMVIYLGTQEGLEDVDVNSYLIVSKGKGILIDPGGYKIFTKVLANVSKYIDPKDIEYIYMCHQDPDVAGSIPLWREISNAKIIIHWLWVRFLPHFGFENIRGYAHELQDEGETLNFGATTLEFIPAHFLHSPGHFTVYDRRSKFLFSGDIGIAFPDERYLVVENMERHIQYMRPLHERLMASNKALRLWVNKVRGLDIEAILPQHGAIIPRRFVPRFLDWLENLKVGVDLMR | soluble
